Source: the Human Domainome abundance scans (Beltran et al. 2025)

B1: Homeobox protein SIX3, residues 212 to 262; numbered along this chain, O95343 (parent)
chain: CFKERTRSLLREWYLQDPYPNPSKKRELAQATGLTPTQVGNWFKNRRQRDR

Variants of: B1
Test: abundance fitness (aPCA) (normalised: wild type 0, dead -1); higher = more abundant; growth selection in yeast, the domain comes from the species named
Details: Homo sapiens

Abundance fitness of substitutions, site by site:
G33: P -0.746 | I -0.902 | R -0.613 | A -0.674 | L -0.812 | V -0.779 | Y -0.978 | Q -0.57 | E -0.915 | D -0.412 | T -0.766 | M -0.75 | C -0.643 | H -0.542 | S -0.555 | K -0.494 | F -0.774 | N 0.029
K25: Y -0.316 | W -0.334
N41: I -0.627 | P -0.614 | S -0.204 | A -0.496 | K 0.252 | H -0.168 | M -0.286 | G -0.55 | L -0.516 | Q -0.402 | D -0.497 | C -0.459 | R 0.142 | V -0.325
F43: M -0.782 | Y -0.689 | T -0.951 | P -0.941 | G -0.956 | W -0.915 | L -0.97 | K -0.92 | N -0.621 | D -0.816 | A -0.96 | Q -0.861 | E -0.883 | R -0.774 | I -0.679 | S -0.837 | H -0.82 | C -0.755 | V -1
E27: R -0.573 | D -0.253 | L -0.515 | P -0.785 | S -0.322 | M -0.373 | V -0.593 | F -0.276 | C -0.819 | Q -0.357 | W -0.678 | K 0.121 | A -0.55 | N -0.947 | H -0.446 | I -0.486 | T -0.668
W42: R -0.933 | K -0.871 | Y -0.398 | C -0.901 | Q -0.854 | G -0.85 | P -1 | A -0.793 | F -0.764 | D -0.722 | E -0.893 | H -0.702 | I -0.897 | S -1.06 | V -0.986 | T -0.461
Q38: D -0.937 | H -0.81 | M -0.619 | R -0.802 | V -0.418 | G -0.761 | T -0.43 | W -0.774 | F -0.663 | N -0.728 | S -0.676 | E -0.606 | P -1.13 | L -0.64 | C -0.393 | K -0.886 | I -0.733 | A -0.338
P36: C -0.241 | K -0.048 | R -0.307 | L -0.087 | N -0.815 | D -0.638 | F 0.184 | E 0.066 | M 0.03 | S -0.274 | I -0.096 | T -0.066 | H -0.305 | G -0.596 | A -0.226 | Q -0.235 | W -0.536
L34: D -0.798 | V -0.881 | S -0.623 | G -0.72 | A -0.72 | T -0.73 | P -0.75 | H -0.502 | W -0.606 | Y -0.778 | N -0.918 | M -0.186 | R -0.847 | Q -0.634 | I -0.445 | K -0.56 | F -0.823 | C -0.834
T32: A -0.399 | W -0.821 | G -0.903 | C -0.026 | R -0.87 | Q -1.23 | P -0.802 | S -0.43 | H 0.036 | I -0.591 | V -0.257 | F -0.922 | D -0.96 | L -0.409 | M -0.59 | Y -1 | E -0.908 | N -0.637 | K -1.02
Q30: W -0.097 | A -0.19 | L -0.139 | V -0.163 | P -0.93 | D 0.037 | G -0.166 | F -0.284 | S -0.044 | C -0.243 | R -0.329 | H -0.149 | E -0.068 | N 0.114 | I 0.228 | Y -0.314
N45: C -0.396 | I -0.429 | H -0.209 | E -0.192 | G -0.58 | K -0.368 | A -0.452
R26: E -0.002 | C -0.044 | L 0.158 | G -0.209 | H 0.047 | D -0.667 | A 0.181 | W -0.266 | Q 0.091 | V 0.047 | F -0.228 | T -0.091 | Y -0.286 | S -0.045 | N 0.385 | P -0.889 | M -0.14 | K -0.01
A31: P -0.892 | D -0.475 | N -0.506 | L 0.088 | Y -0.349 | W -0.326 | V -0.169 | F -0.749 | E -0.076 | M -0.087 | S -0.186 | H -0.062 | T -0.147 | G -0.651 | Q -0.023 | C -0.296 | I -0.148 | K -0.094
G40: V -0.6 | I -0.247 | L -0.731 | C -0.13 | W -0.81 | E -0.099 | R 0.008 | D -0.227 | S 0.006 | T -0.183 | M -0.621 | K 0.097 | Y -0.871 | N 0.131 | H -0.122 | A -0.146 | F -0.858
K44: T -0.376 | S -0.192 | G -0.72 | A -0.286 | M -0.505 | I -0.629 | L -0.407 | R -0.115 | D -0.356 | Q 0.007 | H -0.354 | F -0.452 | Y -0.496 | N 0.017 | V -0.48 | C -0.807 | W -0.623 | E -0.086
T35: C -0.645 | V -0.842 | N -0.259 | W -0.848 | Y -0.826 | P -0.894 | H -0.763 | A -0.861 | Q -0.252 | R -0.704 | L -0.778 | D -0.697 | G -0.827 | K -0.726 | F -0.77 | S -0.044 | E -0.809 | M -0.715
L28: N -0.99 | Y 0.069 | R -0.895 | Q -0.872 | I -0.162 | F -0.07 | K -0.668 | W -0.572 | H -0.778 | T -0.876 | S -0.833 | V -0.147 | E -1.04 | D -0.805 | M 0.029 | C -0.59 | A -1.05
T37: L -0.255 | I -0.184 | H -0.099 | N -0.27 | E 0.164 | R 0.014 | M -0.055 | P -0.416 | Q 0.211 | V -0.091 | F -0.678 | D 0.326 | G -0.126 | A -0.11 | W -0.441 | C -0.051 | S -0.186
V39: L -0.84 | P -0.972 | F -0.848 | A -0.829 | D -0.893 | T -0.573 | C -0.969 | Q -0.78 | G -0.731 | N -1.01 | Y -0.897 | R -0.873 | S -0.916 | H -0.998 | E -0.96 | K -0.945
A29: Q -0.897 | P -0.911 | H -0.777 | K -0.856 | D -0.93 | T -0.76 | W -0.704 | G -0.468 | R -1.11 | E -0.888 | S -0.125 | M -1.03 | C -0.588 | L -0.911
